In paper PMC8709496, “Highly Active Thermophilic L-Asparaginase from Melioribacter roseus Represents a Novel Large Group of Type II Bacterial L-Asparaginases from Chlorobi-Ignavibacteriae-Bacteroidetes Clade” (International Journal of Molecular Sciences, 2021) one finds Km data, which are given here for one protein.

Substrate in the data set: NC(=O)C[C@H](N)C(=O)O
The data set is described as follows: purified protein. The settings on record: borate buffer 0.025 M, pH 9.3, 70 °C. It counts as biochemical, Melioribacter roseus.

B1: MrAII (type II L-asparaginase from M. roseus) (Melioribacter roseus P3M-2) (protein)
chain: MKNILIIFTGGTFSMKIDRETNSAVPYYHGEELLKIIPEADKKANISVYEFGNYPGPHMTPELMLELSEIVKKYINQNDTDGIIITHGTDTLEETAYFLDLTVKTEKPIVVIGAMKTSSEPDWDGPKNLLDAISIINNPNSGNMGVLVCLNGEINAASEVTKTHTEDIETFHSLDFGSLGFVENDRVIFNRLPRKLETFETAKINSNVDLIKVYAGMNEKFFKFSADSGADGLVVEAMGVGNVPPKAFEGIKYVIEKGIPVVLVSRCPAGETLDIYGYEGAGKWLKKAGVIFSDYLNGQKARIKLIVCLGITNEIAKLRSMFEDEQ
notes: synthetic native gene (981 nt, printed as 327 aa) in pET-28a(+) NheI/SalI, E. coli BL21(DE3); Q-Sepharose purified
Take B1: the Km came to 1.4 mM.

The Km is the substrate concentration at which the rate is half of its maximum.
